T1: mCry3A insecticidal protein (Bacillus thuringiensis subsp. …, UniProt P0A379 48-644, limits assumed)
T1 construct: also called modified Cry3A
T1 sequence: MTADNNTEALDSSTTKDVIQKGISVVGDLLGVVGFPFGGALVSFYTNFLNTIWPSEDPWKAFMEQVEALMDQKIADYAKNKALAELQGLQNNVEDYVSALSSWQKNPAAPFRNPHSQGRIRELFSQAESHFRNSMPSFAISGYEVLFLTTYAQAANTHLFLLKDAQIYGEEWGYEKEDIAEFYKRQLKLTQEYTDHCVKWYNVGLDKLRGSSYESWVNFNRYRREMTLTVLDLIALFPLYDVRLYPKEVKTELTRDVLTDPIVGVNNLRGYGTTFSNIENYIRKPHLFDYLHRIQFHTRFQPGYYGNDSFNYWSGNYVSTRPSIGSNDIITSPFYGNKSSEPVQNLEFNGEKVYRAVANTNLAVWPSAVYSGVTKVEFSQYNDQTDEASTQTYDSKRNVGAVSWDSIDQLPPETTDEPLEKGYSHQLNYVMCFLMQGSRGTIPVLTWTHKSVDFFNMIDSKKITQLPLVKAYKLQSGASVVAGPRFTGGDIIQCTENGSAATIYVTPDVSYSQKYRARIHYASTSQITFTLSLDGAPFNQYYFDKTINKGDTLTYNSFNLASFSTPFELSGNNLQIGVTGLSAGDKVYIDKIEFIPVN

B1: synNAPS-2tag ligand (designed binder)
chain: MRGSHHHHHHGSVKVKFKYKGEEKEVDTSKIVWIGRFGKSVYFRYDDNGKTGAGRVYEKDAPKELLDMLARAEREKKLGSGLNDIFEAQKIEWH
modifications: in vivo biotinylation (E. coli BirA strain) on the C-terminal avidin-tag
notes: also called tagged synNAPS 2
B2: synNAPS-4tag ligand (designed binder)
chain: MRGSHHHHHHGSVKVKFKYKGEEKEVDTSKISYVQRAGKSVYFNYDDNGKTGGGRVFEKDAPKELLDMLARAEREKKLGSGLNDIFEAQKIEWH
modifications: in vivo biotinylation (E. coli BirA strain) on the C-terminal avidin-tag
notes: also called tagged synNAPS 4
B3: synNAPS-9tag ligand (designed binder)
chain: MRGSHHHHHHGSVKVKFAQGGEEKEVDTSKIYRVPRHGKIVFFMYDDNGKGGFGHVTEKDAPKELLDMLARAEREKKLGSGLNDIFEAQKIEWH
modifications: in vivo biotinylation (E. coli BirA strain) on the C-terminal avidin-tag
notes: also called NsynNAPS9; tagged synNAPS 9
B4: synNAPS-13 ligand (designed binder)
chain: MVKVKFKRWGEEKEVDTSKILHVLRVGKYVRFSYDDNGKLGAGYVTEKDAPKELLDMLARAEREKK
B5: synNAPS-13tag ligand (designed binder)
chain: MRGSHHHHHHGSVKVKFKRWGEEKEVDTSKILHVLRVGKYVRFSYDDNGKLGAGYVTEKDAPKELLDMLARAEREKKLGSGLNDIFEAQKIEWH
modifications: in vivo biotinylation (E. coli BirA strain) on the C-terminal avidin-tag
notes: also called tagged synNAPS 13
B6: synNAPS-11tag ligand (designed binder)
chain: MRGSHHHHHHGSVKVKFGLGGEEKEVDTSKIRRVLRLGKLVSFTYDDNGKIGLGDVHEKDAPKELLDMLARAEREKKLGSGLNDIFEAQKIEWH
modifications: in vivo biotinylation (E. coli BirA strain) on the C-terminal avidin-tag
notes: also called tagged synNAPS 11

Columns and labels:
[1] = molecular target: T1, mCry3A insecticidal protein; experiment: sandwich ELISA: synNAPS on streptavidin plate, HRP-antibody detection; mCry3A 60 ng/ml
[2] = molecular target: T2, Cry1Ab insecticidal protein (Bacillus thuringiensis, UniProt P0A370 1-615); experiment: direct ELISA: protein coated at 500 ng/ml, 10 nM tagged synNAPS with SA-AP
[3] = molecular target: Cry1Ab.1Ca insecticidal protein; experiment: as above
[4] = molecular target: Cry1Ai insecticidal protein; experiment: as above
[5] = molecular target: eCry3.1Ab hybrid insecticidal protein; experiment: direct ELISA, coated protein, SA-AP, 405 nm
[6] = molecular target: T3, Cry1Aa insecticidal protein (Bacillus thuringiensis subsp. aizawai, UniProt P0A367 12-1176); experiment: direct ELISA, coated protein, SA-AP, 405 nm
[7] = molecular target: T1, mCry3A insecticidal protein; experiment: direct ELISA, coated protein, SA-AP, 405 nm
[8] = molecular target: T2, Cry1Ab insecticidal protein; experiment: sandwich ELISA: synNAPS on streptavidin plate, HRP-antibody detection; Cry1Ab 10 ng/ml
[9] = molecular target: T1, mCry3A insecticidal protein; experiment: direct ELISA: protein coated at 500 ng/ml, 10 nM tagged synNAPS with SA-AP
[10] = molecular target: T2, Cry1Ab insecticidal protein; experiment: direct ELISA, coated protein, SA-AP, 405 nm
[11] = molecular target: Cry1Ab.1Ca insecticidal protein; experiment: direct ELISA, coated protein, SA-AP, 405 nm
[12] = molecular target: Cry1Ai insecticidal protein; experiment: direct ELISA, coated protein, SA-AP, 405 nm
[13] = molecular target: T2, Cry1Ab insecticidal protein; experiment: direct binding ELISA with leaf extracts expressing synNAPS-13, A405
[14] = molecular target: T1, mCry3A insecticidal protein; experiment: as above
[15] = molecular target: eCry3.1Ab hybrid insecticidal protein; experiment: direct ELISA: eCry3.1Ab coated at 1 ug/ml, RGS-His HRP detection
[16] = molecular target: T1, mCry3A insecticidal protein; experiment: affinity capture on synNAPS-13 streptavidin beads from corn leaf extract, eluate measured by ELISA
[17] = molecular target: eCry3.1Ab hybrid insecticidal protein; experiment: direct ELISA: protein coated at 500 ng/ml, 10 nM tagged synNAPS with SA-AP
[18] = molecular target: T3, Cry1Aa insecticidal protein; experiment: as above

| Binder | Absorbance at protein concentration (ng/ml) [1] | Binding to Insecticidal Protein (read at 405 nm) [2] | Binding to Insecticidal Protein (read at 405 nm) [3] | Binding to Insecticidal Protein (read at 405 nm) [4] | binding result [5] | binding result [6] | binding result [7] | Absorbance at protein concentration (ng/ml) [8] | Binding to Insecticidal Protein (read at 405 nm) [9] | binding result [10] | binding result [11] | binding result [12] | binding result [13] | binding result [14] | Binding (OD 450 nm) [15] | Quantity of Protein (ng/ml) eluted from synNAPS-13 beads [16] | Binding to Insecticidal Protein (read at 405 nm) [17] | Binding to Insecticidal Protein (read at 405 nm) [18] |
| --- | --- | --- | --- | --- | --- | --- | --- | --- | --- | --- | --- | --- | --- | --- | --- | --- | --- | --- |
| B1 | 0 absorbance 450 nm | 1.8 absorbance 405 nm | 1 absorbance 405 nm | 2.5 absorbance 405 nm | no binding (tested: 10 nM) | no binding (tested: 10 nM) | no binding (tested: 10 nM) | 4 absorbance 450 nm | – | – | – | – | – | – | – | – | – | – |
| B2 | – | 1.75 absorbance 405 nm | 0.75 absorbance 405 nm | 2.6 absorbance 405 nm | no binding (tested: 10 nM) | no binding (tested: 10 nM) | no binding (tested: 10 nM) | – | – | – | – | – | – | – | – | – | – | – |
| B3 | 2 absorbance 450 nm | – | – | – | no binding (tested: 10 nM) | no binding (tested: 10 nM) | – | 0 absorbance 450 nm | 0.7 absorbance 405 nm | no binding (tested: 10 nM) | no binding (tested: 10 nM) | no binding (tested: 10 nM) | – | – | – | – | – | – |
| B4 | – | – | – | – | – | – | – | – | – | – | – | – | no binding | no binding | 4.1 OD 450 nm | – | – | – |
| B5 | 0 absorbance 450 nm | – | – | – | – | no binding (tested: 10 nM) | no binding (tested: 10 nM) | 0 absorbance 450 nm | – | no binding (tested: 10 nM) | no binding (tested: 10 nM) | no binding (tested: 10 nM) | – | – | – | 0 ng/mL | – | – |
| B6 | – | – | – | 0.7 absorbance 405 nm | – | – | – | – | 2.9 absorbance 405 nm | no binding (tested: 10 nM) | no binding (tested: 10 nM) | – | – | – | – | – | 1.5 absorbance 405 nm | 0.6 absorbance 405 nm |
